Assay results: patent US6417328B1, “Trail receptors, nucleic acids encoding the same, and methods of use thereof” (Thomas Jefferson Univeristy, priority 1997, dated 2002)
Residues, ends and D or L forms follow the SMILES beside them. *: point of attachment. Cbz = O=C(OCc1ccccc1)*; CH2F = FC*

Key:
Format in all cases: cell-based, human
[1] = test system: DR5-induced apoptosis in MCF7 cells; experiment: Inhibition of DR5-induced apoptosis in transfected MCF7 cells
Excerpt: (§1) For apoptosis assays the mammalian double expression vector pRSC (Akporiaye E. T. et al. (1997) BioTech. 22, 68) was used, which allows for expression of lacZ under the RSV promoter and the test cDNA (DR4, DR4A, DR5, DR5A, TRAIL-R3) under the CMV promoter. CrmA, FLAME-1, caspase-8-DN (C345A) or caspase-10-DN (C358A) (Alnemnri E. S. et al. (1997) J. Biol. Chem. 272, 18542-18545) were expressed using pcDNA3 (Invitrogen).
(§2) FIG. 3 illustrates that expression of DR5 but not TRAIL-R3 induces apoptosis in human cells. MCF7 (FIG. 3A) and 293 (FIG. 3B) cells were transfected with the indicated pRSC-lacZ constructs. Thirty hours after transfection cells were stained with Pgal and examined for morphological signs of apoptosis. The graphs show the percentage of round blue apoptotic cells (mean +SD) as a function of total blue cells under each condition (≧23).
(§3) MCF7 cells were transfected with DR4 or DR5 expression constructs in the presence of z-VAD-fmk (20 μM) or co-transfected with a four-fold excess of a CrmA, caspase-8-DN, caspase-10-DN or FLAME-1 construct or an empty vector. The data are represented as in FIGS. 3A and 3B.

[2] = test system: DR4-induced apoptosis in MCF7 cells; experiment: Inhibition of DR4-induced apoptosis in transfected MCF7 cells
Excerpt: as §1, §2, §3

apoptosis by TRAIL = experiment: Inhibition of apoptosis by TRAIL (FIG. 3F)
apoptosis by TNF-α = experiment: Inhibition of apoptosis by TNF-α (FIG. 3F)
MCF7 cells [3] = experiment: Apoptosis induction by transient expression in MCF7 cells; details: pRSC-lacZ constructs, thirty hours after transfection (FIG. 3A)
Excerpt: as §1, §2

293 cells = experiment: Apoptosis induction by transient expression in 293 cells; details: pRSC-lacZ constructs, thirty hours after transfection (FIG. 3B)
Excerpt: as §1, §2

MCF7 cells [4] = experiment: Blocking of TRAIL-induced apoptosis in MCF7 cells; details: MCF7 cells transfected 36 h, then soluble TRAIL 250 ng/ml for 8 h (FIG. 3C)
Protocol: Cells were stained 8 hours later with propidium iodide and the nuclei were examined by fluorescence microscopy.
MCF7 cells were transfected with TRAIL-R3 or vector alone for 36 h, then treated with soluble TRAIL (250 ng/ml) for 8 h. The data are represented as in FIGS. 3A and 3B, after subtracting the background killing (12-15%) as a result of transfection.

[5] = MCF7 cells co-transfected with four-fold excess of inhibitor construct (FIG. 3D, 3E)

COC(=O)C[C@H](NC(=O)[C@H](C)NC(=O)[C@@H](NC(=O)OCc1ccccc1)C(C)C)C(=O)CF [z-VAD-fmk, reference compound] (Cbz-Val-Ala-Asp(OMe)-CH2F)
Inhibition of DR5-induced apoptosis ([1]; MCF7 cells transfected with DR5 construct in the presence of inhibitor 20 μM (FIG. 3D)): efficiently blocked
Inhibition of DR4-induced apoptosis ([2]; MCF7 cells transfected with DR4 construct in the presence of inhibitor 20 μM (FIG. 3D)): inhibited

DR5s: alternatively spliced isoform of DR5, 350 amino acids (SEQ ID NO:6), truncated death domain
Inhibition of apoptosis by TRAIL (apoptosis by TRAIL): substantially inhibits
Inhibition of apoptosis by TNF-α (apoptosis by TNF-α): not

B1: DR5: human TRAIL receptor protein of 411 amino acids (SEQ ID NO:2) with cytoplasmic death domain (protein, listed as Homo sapiens)
chain: MEQRGQNAPAASGARKRHGPGPREARGARPGLRVPKTLVLVVAAVLLLVSAESALITQQDLAPQQRVAPQQKRSSPSEGLCPPGHHISEDGRDCISCKYGQDYSTHWNDLLFCLRCTRCDSGEVELSPCTTTRNTVCQCEEGTFREEDSPEMCRKCRTGCPRGMVKVGDCTPWSDIECVHKESGIIIGVTVAAVVLIVAVFVCKSLLWKKVLPYLKGICSGGGGDPERVDRSSQRPGAEDNVLNEIVSILQPTQVPEQEMEVQEPAEPTGVNMLSPGESEHLLEPAEAERSQRRRLLVPANEGDPTETLRQCFDDFADLVPFDSWEPLMRKLGLMDNEIKVAKAEAAGHRDTLYTMLIKWVNKTGRDASVHTLLDALETLGERLAKQKIEDHLLSSGKFMYLEGNADSAMS
Induction of apoptosis by transient expression (MCF7 cells [3]): triggers apoptosis
Induction of apoptosis by transient expression (293 cells): triggers apoptosis

B2: TRAIL-R3: human TRAIL receptor protein of 299 amino acids (SEQ ID NO:4) without cytoplasmic domain (protein, listed as Homo sapiens)
chain: MQGVKERFLPLGNSGDRAPRPPDGRGRVRPRTQDGVGNHTMARIPKTLKFVVVIVAVLLPVLAYSATTARQEEVPQQTVAPQQQRHSFKGEECPAGSHRSEHTGACNPCTEGVDYTNASNNEPSCFPCTVCKSDQKHKSSCTMTRDTVCQCKEGTFRNENSPEMCRKCSRCPSGEVQVSNCTSWDDIQCVEEFGANATVETPAAEETMNTSPGTPAPAAEETMNTSPGTPAPAAEETMTTSPGTPAPAAEETMTTSPGTPAPAAEETMTTSPGTPASSHYLSCTIVGIIVLIVLLIVFV
Induction of apoptosis by transient expression (MCF7 cells [3]): incapable of inducing apoptosis
Induction of apoptosis by transient expression (293 cells): incapable of inducing apoptosis
Blocking of TRAIL-induced apoptosis by transient (ectopic) expression (MCF7 cells [4]): significantly blocked

B3: caspase-8-DN: dominant negative inhibitor caspase-8 (C345A), expressed using pcDNA3 (protein, UniProt Q14790 1-479, looked up, variant C345A)
chain: MDFSRNLYDIGEQLDSEDLASLKFLSLDYIPQRKQEPIKDALMLFQRLQEKRMLEESNLSFLKELLFRINRLDLLITYLNTRKEEMERELQTPGRAQISAYRVMLYQISEEVSRSELRSFKFLLQEEISKCKLDDDMNLLDIFIEMEKRVILGEGKLDILKRVCAQINKSLLKIINDYEEFSKERSSSLEGSPDEFSNGEELCGVMTISDSPREQDSESQTLDKVYQMKSKPRGYCLIINNHNFAKAREKVPKLHSIRDRNGTHLDAGALTTTFEELHFEIKPHDDCTVEQIYEILKIYQLMDHSNMDCFICCILSHGDKGIIYGTDGQEAPIYELTSQFTGLKAPSLAGKPKVFFIQACQGDNYQKGIPVETDSEEQPYLEMDLSSPQTRYIPDEADFLLGMATVNNCVSYRNPAEGTWYIQSLCQSLRERCPRGDDILTILTEVNYEVSNKDDKKNMGKQMPQPTFTLRKKLVFPSD
Inhibition of DR5-induced apoptosis [1, 5]: significantly inhibited
Inhibition of DR4-induced apoptosis [2, 5]: significantly inhibited
